The source of these data is patent US20050074826A1 (published 2005).

B1: CCX-CKR2, mouse (on E13 fetal liver cells) (receptor, UniProt P56485 1-362, looked up)
chain: MDVHLFDYAEPGNYSDINWPCNSSDCIVVDTVQCPTMPNKNVLLYTLSFIYIFIFVIGMIANSVVVWVNIQAKTTGYDTHCYILNLAIADLWVVITIPVWVVSLVQHNQWPMGELTCKITHLIFSINLFGSIFFLACMSVDRYLSITYFTGTSSYKKKMVRRVVCILVWLLAFFVSLPDTYYLKTVTSASNNETYCRSFYPEHSIKEWLIGMELVSVILGFAVPFTIIAIFYFLLARAMSASGDQEKHSSRKIIFSYVVVFLVCWLPYHFVVLLDIFSILHYIPFTCQLENVLFTALHVTQCLSLVHCCVNPVLYSFINRNYRYELMKAFIFKYSAKTGLTKLIDASRVSETEYSALEQNTK
notes: whole, on cells; also called SDF-1 receptor on E13 fetal liver cells
B2: CXCR4, human (receptor, UniProt P61073 1-352, looked up)
chain: MEGISIYTSDNYTEEMGSGDYDSMKEPCFREENANFNKIFLPTIYSIIFLTGIVGNGLVILVMGYQKKLRSMTDKYRLHLSVADLLFVITLPFWAVDAVANWYFGNFLCKAVHVIYTVNLYSSVLILAFISLDRYLAIVHATNSQRPRKLLAEKVVYVGVWIPALLLTIPDFIFANVSEADDRYICDRFYPNDLWVVVFQFQHIMVGLILPGIVILSCYCIIISKLSHSKGHQKRKALKTTVILILAFFACWLPYYIGISIDSFILLEIIKQGCEFENTVHKWISITEALAFFHCCLNPILYAFLGAKFKTSAQHALTSVSRGSSLKILSKGKRGGHSSVSTESESSSFHSS
notes: whole, on cells; also called CXCR4 on CEM-NKr cells; leukocyte CXCR4

For test [1], the target named is T1, human SDF-1α (human, UniProt P48061-2 22-89).
T1 construct: also called hSDF-1α; SDF-1a
T1 sequence (P48061 22-89 limits assumed): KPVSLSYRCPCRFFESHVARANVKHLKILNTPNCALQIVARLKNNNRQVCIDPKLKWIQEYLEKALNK
Kind of test: radioligand binding on mouse E13 fetal liver cells.

Test [2] deals with T1, human SDF-1α. Kind of test: DisplaceMax displacement of 125I SDF-1α on CEM-NKr cells (CXCR4). A general note: In a radioligand displacement assay an active substance lowers the binding of a labelled ligand.
Test [3] concerns the target B1. Kind of test: competition with radiolabeled human SDF-1 on mouse E13 fetal liver cells.
The test “CXCR4, human” addresses B2. The test can be described thus: dose response competition with 125I SDF-1α on CEM-NKr cells (CXCR4).
Protocol: Binding Analysis. […] Small molecules were included in some assays, where indicated. In these assays the compound was added to the plate to the indicated concentration followed by the addition of radiolabeled chemokine. All assays were then incubated for 3 hrs at 4° C. with gentle agitation. Following incubation in all binding assays, reactions were aspirated onto PEI-treated GF/B glass filters (Packard) using a cell harvester (Packard) and washed twice (25 mM HEPES, 500 mM NaCl, 1 mM CaCl₂, 5 mM MgCl₂, adjusted to pH 7.1). Scintillant (MicroScint 10, Packard) was added to the wells, and the filters were counted in a Packard Topcount scintillation counter.
Test [4] addresses T2, CCX-CKR2 (RDC1), human (human, UniProt P25106 1-362).
T2 construct: also called CCX-CR2; SDF1 receptor on MCF-7 cells
The test can be described thus: homologous competition with 125I I-TAC on MCF-7 cells, medium alone.
Protocol: (§1) Small molecules were included in some assays, where indicated. In these assays the compound was added to the plate to the indicated concentration followed by the addition of radiolabeled chemokine. All assays were then incubated for 3 hrs at 4° C. with gentle agitation. Following incubation in all binding assays, reactions were aspirated onto PEI-treated GF/B glass filters (Packard) using a cell harvester (Packard) and washed twice (25 mM HEPES, 500 mM NaCl, 1 mM CaCl₂, 5 mM MgCl₂, adjusted to pH 7.1). Scintillant (MicroScint 10, Packard) was added to the wells, and the filters were counted in a Packard Topcount scintillation counter. Data were analyzed and plotted using Prism (GraphPad Prism version 3.0a for Macintosh, GraphPad Software).

In test [5] the target is T2, CCX-CKR2 (RDC1), human. The test can be described thus: competition with 125I I-TAC on MCF-7 cells.
Protocol: as §1

T2 sequence (P25106 whole entry): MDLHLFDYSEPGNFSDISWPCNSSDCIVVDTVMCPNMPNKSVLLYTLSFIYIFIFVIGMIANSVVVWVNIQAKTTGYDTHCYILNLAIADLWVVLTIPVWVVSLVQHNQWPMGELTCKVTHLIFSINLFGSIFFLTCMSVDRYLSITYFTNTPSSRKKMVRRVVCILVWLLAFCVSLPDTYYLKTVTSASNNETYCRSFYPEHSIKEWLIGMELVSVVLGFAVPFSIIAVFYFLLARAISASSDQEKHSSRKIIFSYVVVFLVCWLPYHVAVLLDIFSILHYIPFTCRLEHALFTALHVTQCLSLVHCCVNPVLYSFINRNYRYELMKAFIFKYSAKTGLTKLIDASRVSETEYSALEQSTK

On to B1, for which, in the test with human SDF-1α [1], the binding result was “binds”.

On to B2, for which the binding result in the test with human SDF-1α [2] is on record as “binds”.

B3: mouse I-TAC (ligand, UniProt Q9JHH5 22-100, looked up)
chain: FLMFKQGRCLCIGPGMKAVKMAEIEKASVIYPSNGCDKVEVIVTMKAHKRQRCLDPRSKQARLIMQAIEKKNFLRRQNM
notes: also called mI-TAC; I-TAC (mouse protein)
Take B3: in test [3], the binding result is on record as “binds”.

B4: human I-TAC (ligand, UniProt O14625 22-94, looked up)
chain: FPMFKRGRCLCIGPGVKAVKVADIEKASIMYPSNNCDKIEVIITLKENKGQRCLNPKSKQARLIIKKVERKNF
notes: also called hI-TAC; CXCL11
Broadly, the IC50 is the concentration at which inhibition is half-maximal. Low values mean greater potency in that assay, high ones weaker potency in that assay. Regarding B4, the binding result with CXCR4, human is given as “no binding”; in test [3] it was “binds”. In addition, in the test with CCX-CKR2 (RDC1), human [4], the half-maximal inhibitory concentration (IC50) stood at 1 nM.

B5: MIG (ligand, UniProt Q07325 23-125, looked up)
chain: TPVVRKGRCSCISTNQGTIHLQSLKDLKQFAPSPSCEKIEIIATLKNGVQTCLNPDSADVKELIKKWEKQVSQKKKQKNGKKHQKKKVLKVRKSQRSRQKKTT
notes: also called monokine induced by gamma interferon; CXCR3 ligand MIG
With B5, in the test with CCX-CKR2 (RDC1), human [5], the binding result was “no binding”.
